Article PMC3522258

T1: RIG-I (ΔCARDs) (human, UniProt O95786 229-925)
T1 sequence: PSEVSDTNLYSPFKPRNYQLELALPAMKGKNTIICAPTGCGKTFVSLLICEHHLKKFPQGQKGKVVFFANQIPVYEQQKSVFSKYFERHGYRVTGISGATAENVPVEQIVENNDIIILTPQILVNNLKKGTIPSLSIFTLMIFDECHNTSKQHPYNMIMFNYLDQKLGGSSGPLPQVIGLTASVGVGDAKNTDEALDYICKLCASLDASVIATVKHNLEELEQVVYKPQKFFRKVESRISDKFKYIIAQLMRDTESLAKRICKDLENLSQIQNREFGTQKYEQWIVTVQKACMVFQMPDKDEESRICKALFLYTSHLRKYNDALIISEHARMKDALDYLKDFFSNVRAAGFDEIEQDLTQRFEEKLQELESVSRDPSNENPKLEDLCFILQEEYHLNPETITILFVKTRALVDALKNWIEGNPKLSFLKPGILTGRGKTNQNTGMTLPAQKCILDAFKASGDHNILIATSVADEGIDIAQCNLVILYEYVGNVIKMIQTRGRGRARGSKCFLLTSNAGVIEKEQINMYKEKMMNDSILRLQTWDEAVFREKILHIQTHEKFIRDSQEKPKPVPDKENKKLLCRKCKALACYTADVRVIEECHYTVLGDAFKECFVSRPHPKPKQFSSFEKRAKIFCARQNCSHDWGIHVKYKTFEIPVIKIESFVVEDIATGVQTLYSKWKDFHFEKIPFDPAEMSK

T2: HD (helicase domain) (human, UniProt O95786 229-793)
T2 sequence: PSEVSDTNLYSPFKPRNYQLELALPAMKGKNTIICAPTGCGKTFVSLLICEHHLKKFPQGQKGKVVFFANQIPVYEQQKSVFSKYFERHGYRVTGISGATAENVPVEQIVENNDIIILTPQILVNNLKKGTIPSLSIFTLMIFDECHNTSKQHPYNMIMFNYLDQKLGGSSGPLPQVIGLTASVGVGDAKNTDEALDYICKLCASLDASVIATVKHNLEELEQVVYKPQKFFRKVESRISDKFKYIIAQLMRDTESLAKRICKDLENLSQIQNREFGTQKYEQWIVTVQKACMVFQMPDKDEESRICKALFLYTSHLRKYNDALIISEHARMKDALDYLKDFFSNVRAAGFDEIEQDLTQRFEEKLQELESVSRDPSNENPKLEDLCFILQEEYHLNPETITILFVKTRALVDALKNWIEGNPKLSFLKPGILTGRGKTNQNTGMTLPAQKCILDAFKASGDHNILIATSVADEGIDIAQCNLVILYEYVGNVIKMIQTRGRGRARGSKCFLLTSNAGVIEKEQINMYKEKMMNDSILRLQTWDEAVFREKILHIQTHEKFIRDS

T3: full-length RIG-I (human, UniProt O95786 1-925)
T3 sequence: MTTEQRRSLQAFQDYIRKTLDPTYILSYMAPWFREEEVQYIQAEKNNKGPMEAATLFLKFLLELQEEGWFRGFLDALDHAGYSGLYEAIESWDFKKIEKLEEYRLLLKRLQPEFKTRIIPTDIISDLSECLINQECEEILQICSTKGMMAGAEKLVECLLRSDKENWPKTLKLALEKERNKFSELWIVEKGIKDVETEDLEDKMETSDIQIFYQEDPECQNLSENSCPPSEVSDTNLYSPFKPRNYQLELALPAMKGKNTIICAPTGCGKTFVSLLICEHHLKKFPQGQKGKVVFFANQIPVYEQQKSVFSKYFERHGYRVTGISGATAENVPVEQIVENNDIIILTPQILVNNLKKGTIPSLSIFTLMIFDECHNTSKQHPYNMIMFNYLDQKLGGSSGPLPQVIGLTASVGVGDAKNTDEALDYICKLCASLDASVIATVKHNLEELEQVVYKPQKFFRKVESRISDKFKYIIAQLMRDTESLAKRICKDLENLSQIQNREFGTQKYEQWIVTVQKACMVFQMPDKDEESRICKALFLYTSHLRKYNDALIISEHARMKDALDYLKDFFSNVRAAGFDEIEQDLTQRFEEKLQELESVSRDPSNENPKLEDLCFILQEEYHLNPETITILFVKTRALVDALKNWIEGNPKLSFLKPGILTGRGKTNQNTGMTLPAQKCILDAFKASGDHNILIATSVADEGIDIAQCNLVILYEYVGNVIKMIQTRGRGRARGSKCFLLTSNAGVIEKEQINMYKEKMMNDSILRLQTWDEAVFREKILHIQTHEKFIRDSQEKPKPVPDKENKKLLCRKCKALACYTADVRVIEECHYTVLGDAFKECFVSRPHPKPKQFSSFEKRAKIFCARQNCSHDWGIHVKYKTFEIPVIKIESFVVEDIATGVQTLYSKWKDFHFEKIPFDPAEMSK

T4: CTD (human, UniProt O95786 792-925)
T4 sequence: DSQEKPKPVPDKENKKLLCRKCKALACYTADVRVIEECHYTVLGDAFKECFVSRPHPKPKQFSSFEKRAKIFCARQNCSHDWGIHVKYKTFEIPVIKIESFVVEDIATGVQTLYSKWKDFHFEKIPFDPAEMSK

B1: 5'-ppp 14 dsRNA (dsRNA)
RNA 1: ACCUCCCACCCCCG
RNA 2: CGGGGGUGGGAGGU
modifications: 5'-triphosphate on top strand
B2: 5'-OH 14 dsRNA (dsRNA)
RNA 1: ACCUCCCACCCCCG
RNA 2: CGGGGGUGGGAGGU
modifications: 5'-OH on top strand
B3: 5'-OH 14 dsRNA, unlabeled competitor (dsRNA)
RNA 1: ACCUCCCACCCCCG
RNA 2: CGGGGGUGGGAGGU
modifications: 5'-OH

Tests used:
RIG-I (ΔCARDs) [1] = target: T1, RIG-I (ΔCARDs); experiment: EMSA
HD (helicase domain) = target: T2, HD (helicase domain); experiment: EMSA
full-length RIG-I = target: T3, full-length RIG-I; experiment: EMSA
CTD = target: T4, CTD; experiment: EMSA
RIG-I (ΔCARDs) [2] = target: T1, RIG-I (ΔCARDs); experiment: competition

| Binder | Kd (RIG-I (ΔCARDs) [1]) [nM] | Kd (HD (helicase domain)) [nM] | Kd (full-length RIG-I) [nM] | Kd (CTD) [nM] | Ki (RIG-I (ΔCARDs) [2]) [nM] |
| --- | --- | --- | --- | --- | --- |
| B1 | 0.041 ± 0.002 | 760 ± 20 | 0.159 ± 0.02 | 0.5 ± 0.06 |  |
| B2 | 3.6 ± 0.9 |  | 20 ± 3 | 5900 ± 750 |  |
| B3 |  |  |  |  | 13 |
